Laboratory results taken from patent US20200325233A1 (ABCURO, published 2020).

T1: full length human KLRG1 (cell-expressed) (human, UniProt Q96E93 1-195)
T1 construct: whole, on cells; also called CHO-human-KLRG1
T1 sequence (looked up): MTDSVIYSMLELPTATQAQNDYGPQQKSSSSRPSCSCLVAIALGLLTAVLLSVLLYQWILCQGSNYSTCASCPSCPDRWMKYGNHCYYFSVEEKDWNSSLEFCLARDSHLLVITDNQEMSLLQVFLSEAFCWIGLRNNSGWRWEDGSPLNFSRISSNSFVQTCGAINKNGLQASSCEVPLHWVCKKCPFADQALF

T2: full length cynomolgus KLRG1 (cell-expressed) (cynomolgus, UniProt A0A2K5WAP9 1-186)
T2 construct: whole, on cells; also called CHO-cynomolgus-KLRG1; cyno KLRG1
T2 sequence: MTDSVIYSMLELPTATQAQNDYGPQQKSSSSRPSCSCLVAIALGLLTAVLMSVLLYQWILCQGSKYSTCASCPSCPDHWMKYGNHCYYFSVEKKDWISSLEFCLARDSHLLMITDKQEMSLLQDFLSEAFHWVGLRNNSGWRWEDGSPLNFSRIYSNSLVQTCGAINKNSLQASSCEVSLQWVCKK

T3: SPLNFSRISSNSFVQ
T3 peptide: SPLNFSRISSNSFVQ

T4: WEDGSPLNFSRISSN
T4 peptide: WEDGSPLNFSRISSN

T5: cyno KLRG1 extracellular domain (ECD) (cynomolgus, biotinylated in the Octet assay (site not stated))
T5 construct: Recombinant proteins were made as FC fusion or HIS tagged versions; also called cynomolgus-KLRG1-ECD; cyno KRG1 ECD
T5 chain: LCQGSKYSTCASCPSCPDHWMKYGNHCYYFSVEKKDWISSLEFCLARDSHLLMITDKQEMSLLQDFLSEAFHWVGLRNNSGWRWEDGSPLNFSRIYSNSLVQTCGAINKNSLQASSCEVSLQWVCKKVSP

T6: human KLRG1 extracellular domain (ECD) (human, UniProt Q96E93 60-186, biotinylated in the Octet assay (site not stated))
T6 construct: Recombinant proteins were made as FC fusion or HIS tagged versions; also called Human-KLRG-ECD; human KLRG1 ECD
T6 sequence: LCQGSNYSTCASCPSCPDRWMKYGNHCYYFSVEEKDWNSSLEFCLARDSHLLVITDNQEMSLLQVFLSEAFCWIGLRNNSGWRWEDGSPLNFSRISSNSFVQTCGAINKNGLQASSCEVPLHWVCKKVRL


Assays:
[1] = target: T1, full length human KLRG1 (cell-expressed); test: FACS on CHO cells expressing full length human KLRG1, anti-mouse detection
Method: (§1) Binding of anti-KLRG1 monoclonal antibodies to cells that expressed human and cynomolgus-KLRG1 was carried out by FACS. Chinese hamster ovary (CHO) cells were stably transfected to express full length human KLRG1 (CHO-human-KLRG1) and cynomolgus KLRG1 (CHO-cynomolgus-KLRG1). […] Table 7 summarizes the EC50 binding data measured for selected antibodies.

[2] = target: T2, full length cynomolgus KLRG1 …; test: FACS on CHO cells expressing full length cynomolgus KLRG1, anti-mouse detection
Method: as §1

SPLNFSRISSNSFVQ = target: T3, SPLNFSRISSNSFVQ; test: peptide mapping: ABC_G1D03 on overlapping KLRG1 peptides, signal per peptide
WEDGSPLNFSRISSN = target: T4, WEDGSPLNFSRISSN; test: as above
[3] = target: T5, cyno KLRG1 extracellular domain (ECD); test: hybridoma screening for binding to cyno KLRG1 ECD
[4] = target: T5, cyno KLRG1 extracellular domain (ECD); test: Octet BLI, biotinylated antigen on streptavidin sensor, antibody in solution, 1:1 fit
Method: (§2) Binging kinetics of humanized antibodies for human and cynomolgus KLRG1 were determined by Octet® Systems (ForteBio) measurement. The Octet® platform includes instruments, biosensors, reagents, and assay kits for analysis of biomolecular interactions in 96- and 384-well microplates for use in real-time, label-free analysis for determination of affinity, kinetics, and concentration. The experimental set-up includes immobilizing biotinylated recombinant antigen (Human-KLRG-ECD or cynomolgus-KLRG1-ECD) on a streptavidin Octet® sensor to produce antigen loaded sensors. […] Thereafter, the sensors can be exposed to a solution of 1× phosphate buffered saline (PBS) buffer devoid of antibody for approximately 600 seconds to observe dissociation kinetics (kdis). The resulting data can then be fitted to a 1:1 binding kinetics model using, for example, ForteBio analysis software to calculate the KD. Kinetic binding parameters derived by this method are summarized in Table 8 for three humanized antibodies.

[5] = target: T6, human KLRG1 extracellular domain (ECD); test: as above
Method: as §2

Binder | EC50 [1] | EC50 [2] | binding result (SPLNFSRISSNSFVQ) | binding result (WEDGSPLNFSRISSN) | binding result [3] | Kd [4] | koff [4] | kon [4] | Kd [5] | koff [5] | kon [5]
ABC_G1D03 (antibody, V domains shown, Mouse hybridoma monoclonal antibody) VH: EVQLQQSGPELVKPGASVKMSCKTSGYTFTDHNMHWLKQSHGKGLEWFGFINPNTGVTRYNQKFNGKATLTINKSSSTAYLDLRSLTSEDSAVYYCTRDYYGSAWFAYWGQGTLVTVSA VL: DIVMSQSPASQTVSVGEKVTMSCKSSQTLLYSSDQKNYLAWYQQKPGQSPKLLIYWASTRESGVPDRFTGSGSGTDFTLTISSVKAEDLAVYYCQQYYNYPTFGGGTKLEIK | 6.3 nM | 8.63 nM | binds | binds | binds | – | – | – | – | – | –
ABC_G1D01 (antibody, V domains shown, Mouse hybridoma monoclonal antibody) VH: EVQLQQSGPELVKPGASVKMSCKASGYTFTDYNIHWVKQSHGKSLEWIGFFNPKNGVTINNQNFKGKAALTVNKSSSTAYMELRRLTSEDSAVYYCARDYYGTAWFAYWGQGTLVTVSA VL: DIVMSQSPSSLAVSVGEKVTMSCRSSQSLLYSSNQKNYLAWYQQKPGQSPKLLIYWASTRESGVPDRFTGSGSGTDFTLTISSVKAEDLAVYYCQQFYSYPTFGGGTKLEIK | 4.87 nM | 3.44 nM | – | – | – | – | – | – | – | – | –
ABC_G1D02 (antibody, V domains shown, Mouse hybridoma monoclonal antibody) VH: QVQLQQSGAELVRPGTSVKVSCKASGYAFTNYFIEWIKQRPGQGLEWIGVINPGSGGTNYNEKFKGKATLTADKSSSTAYMQLSSLTSEDSAVYFCTRPGHFDYWGQGTTLTVSS VL: EIVLTQSPTTMAASPGEKITITCSASSSISSNYLHWYQQKPGFSPKLLIYKTSNLASGVPPRFSGSGSGTSYSLTIGTMEAEDVATYYCQQGNSIPRTFGGGTKLEIK | 9.11 nM | 10.1 nM | – | – | binds | – | – | – | – | – | –
ABC_G1D04 (antibody, V domains shown, Mouse hybridoma monoclonal antibody) VH: EVQLQQSGPELVKPGSSLMMSCKSSGYTFTDYNIHWVKQSHGKRLEWIGFIDPKNGGTLYSEKFKDKATLTINKSSSTAYMELRSLTSEDSAVFYCAPDYYGSAWFAYWGQGTLVTVSA VL: DIVMSQSPSSLTVSVGENVTMSCKSSQNLLYTSNQKNYLAWYQQKPGHSPKLLISWASTRESGVPDRFTGSGSGTDFTLTITSVKAEDLAVFYCQQYYHYPTFGGGTKLEIK | 213 nM | 7.2 nM | – | – | binds | – | – | – | – | – | –

Now from value to binder:

EC50 [1] | EC50 [2] | binding result (SPLNFSRISSNSFVQ) | binding result (WEDGSPLNFSRISSN) | binding result [3] | Kd [4] | koff [4] | kon [4] | Kd [5] | koff [5] | kon [5] | Binder
5.15 nM | 5.93 nM | – | – | binds | – | – | – | – | – | – | ABC_G1D05 (antibody, V domains shown, Mouse hybridoma monoclonal antibody) VH: QVQLKQSGPGLVQPSQSLSITCTVSGFSLTTHGVHWVRQSPGKGLEWLGVIWSGGSTDYNAAFISRLSIRKDNSKSQVFFKMNSLQTNDTAIYYCARLRLPAMDYWGQGTSVTVSS VL: QIVLTQSPTIMSASLGERVTMTCTASSSVSSTYLHWYQQKPGSSPKLWIYSTSNLASGVPARFSGSGSGTSYSLTISSMEAEDAATYYCHQYHRSPLSFGAGTKLELK
72.5 nM | 3.4 nM | – | – | binds | – | – | – | – | – | – | ABC_G1D06 (antibody, V domains shown, Mouse hybridoma monoclonal antibody) VH: QVQLQQSGAELVRPGASVTLSCKASGYKFSDYEIHWVKQTPVYGLEWIGALEPATGGTAYNPNFKGKAILTADKSSTTAYMELRSLTSEDSAVYYCSMHLAVYWGQGTLVTVSA VL: not shown
– | – | – | – | – | 0.388 nM | 0.000142 s⁻¹ | 367000 M⁻¹ s⁻¹ | 0.0567 nM | 3.07e-05 s⁻¹ | 541000 M⁻¹ s⁻¹ | ABC_HG1D02 (antibody, V domains shown, The printed VK entry ends in 'RTV' (start of the constant kappa domain)) VH: QVQLVQSGAEVKKPGSSVKVSCKASGYAFTNYFIEWVRQRPGQGLEWMGVINPGSGGTNYNEKFKGRVTITADKSSSTAYMELSSLRSEDTAVYYCARPGHFDYWGQGTTVTVSS VL: EIVLTQSPTTLSLSPGERATLSCSASSSISSNYLHWYQQKPGFAPRLLIYKTSNLASGIPPRFSGSGSGTDFTLTISRLEPEDFAVYYCQQGNSIPRTFGQGTKVEIKR
– | – | – | – | – | 0.0609 nM | 3.82e-05 s⁻¹ | 627000 M⁻¹ s⁻¹ | 0.156 nM | 5.91e-05 s⁻¹ | 380000 M⁻¹ s⁻¹ | ABC_HG1D03 (antibody, V domains shown, The printed VK entry ends at '...FGGGTKV' (appears cut short of the usual end of the domain)) VH: EVQLVQSGAEVKKPGASVKVSCKASGYTFTDHNMHWVKQATGQGLEWFGFINPNTGVTRYNQKFQGRVTLTINKAISTAYLELSSLRSEDTAVYYCARDYYGSAWFAYWGQGTLVTVSS VL: not shown
